From article doi:10.1101/2021.09.16.460650 (bioRxiv, 2021)

Molecular target: the molecule itself
Assay: non-reducing SDS-PAGE with western blot

Row | Protein | stoichiometry N
1 | calreticulin (natural protein, human (endogenous in DLD-1), UniProt P27797 18-417, looked up) EPAVYFKEQFLDGDGWTSRWIESKHKSDFGKFVLSSGKFYGDEEKDKGLQTSQDARFYALSASFEPFSNKGQTLVVQFTVKHEQNIDCGGGYVKLFPNSLDQTDMHGDSEYNIMFGPDICGPGTKKVHVIFNYKGKNVLINKDIRCKDDEFTHLYTLIVRPDNTYEVKIDNSQVESGSLEDDWDFLPPKKIKDPDASKPEDWDERAKIDDPTDSKPEDWDKPEHIPDPDAKKPEDWDEEMDGEWEPPVIQNPEYKGEWKPRQIDNPDYKGTWIHPEIDNPEYSPDPSIYAYDNFGVLGLDLWQVKSGTIFDNFLITNDEAYAEEFGNETWGVTKAAEKQMKDKQDEEQRLKEEEEDKKRKEEEEAEDKEDDEDKDEDEEDEEDKEEDEEEDVPGQAKDEL | 2
2 | N-terminally arginylated calreticulin (natural protein, human (endogenous in DLD-1), UniProt P27797 18-417, looked up, arginyl group added at the mature (signal sequence removed) NH2-terminus, Glu-18) REPAVYFKEQFLDGDGWTSRWIESKHKSDFGKFVLSSGKFYGDEEKDKGLQTSQDARFYALSASFEPFSNKGQTLVVQFTVKHEQNIDCGGGYVKLFPNSLDQTDMHGDSEYNIMFGPDICGPGTKKVHVIFNYKGKNVLINKDIRCKDDEFTHLYTLIVRPDNTYEVKIDNSQVESGSLEDDWDFLPPKKIKDPDASKPEDWDERAKIDDPTDSKPEDWDKPEHIPDPDAKKPEDWDEEMDGEWEPPVIQNPEYKGEWKPRQIDNPDYKGTWIHPEIDNPEYSPDPSIYAYDNFGVLGLDLWQVKSGTIFDNFLITNDEAYAEEFGNETWGVTKAAEKQMKDKQDEEQRLKEEEEDKKRKEEEEAEDKEDDEDKDEDEEDEEDKEEDEEEDVPGQAKDEL | 2
